B1: High osmolarity signaling protein SHO1 (Saccharomyces cerevisiae), P40073 (parent)
chain: MSISSKIRPTPRKPSRMATDHSFKMKKFYADPFAISSISLAIVSWVIAIGGSISSASTNESFPRFTWWGIVYQFLIICSLMLFYCFDLVDHYRIFITTSIAVAFVYNTNSATNLVYADGPKKAAASAGVILLSIINLIWILYYGGDNASPTNRWIDSFSIKGIRPSPLENSLHRARRRGNRNTTPYQNNVYNDAIRDSGYATQFDGYPQQQPSHTNYVSSTALAGFENTQPNTSEAVNLHLNTLQQRINSASNAKETNDNSNNQTNTNIGNTFDTDFSNGNTETTMGDTLGLYSDIGDDNFIYKAKALYPYDADDDDAYEISFEQNEILQVSDIEGRWWKARRANGETGIIPSNYVQLIDGPEEMHR
B2: High osmolarity signaling protein SHO1 (Saccharomyces cerevisiae), P40073 (parent)
chain: B1 chain
partner: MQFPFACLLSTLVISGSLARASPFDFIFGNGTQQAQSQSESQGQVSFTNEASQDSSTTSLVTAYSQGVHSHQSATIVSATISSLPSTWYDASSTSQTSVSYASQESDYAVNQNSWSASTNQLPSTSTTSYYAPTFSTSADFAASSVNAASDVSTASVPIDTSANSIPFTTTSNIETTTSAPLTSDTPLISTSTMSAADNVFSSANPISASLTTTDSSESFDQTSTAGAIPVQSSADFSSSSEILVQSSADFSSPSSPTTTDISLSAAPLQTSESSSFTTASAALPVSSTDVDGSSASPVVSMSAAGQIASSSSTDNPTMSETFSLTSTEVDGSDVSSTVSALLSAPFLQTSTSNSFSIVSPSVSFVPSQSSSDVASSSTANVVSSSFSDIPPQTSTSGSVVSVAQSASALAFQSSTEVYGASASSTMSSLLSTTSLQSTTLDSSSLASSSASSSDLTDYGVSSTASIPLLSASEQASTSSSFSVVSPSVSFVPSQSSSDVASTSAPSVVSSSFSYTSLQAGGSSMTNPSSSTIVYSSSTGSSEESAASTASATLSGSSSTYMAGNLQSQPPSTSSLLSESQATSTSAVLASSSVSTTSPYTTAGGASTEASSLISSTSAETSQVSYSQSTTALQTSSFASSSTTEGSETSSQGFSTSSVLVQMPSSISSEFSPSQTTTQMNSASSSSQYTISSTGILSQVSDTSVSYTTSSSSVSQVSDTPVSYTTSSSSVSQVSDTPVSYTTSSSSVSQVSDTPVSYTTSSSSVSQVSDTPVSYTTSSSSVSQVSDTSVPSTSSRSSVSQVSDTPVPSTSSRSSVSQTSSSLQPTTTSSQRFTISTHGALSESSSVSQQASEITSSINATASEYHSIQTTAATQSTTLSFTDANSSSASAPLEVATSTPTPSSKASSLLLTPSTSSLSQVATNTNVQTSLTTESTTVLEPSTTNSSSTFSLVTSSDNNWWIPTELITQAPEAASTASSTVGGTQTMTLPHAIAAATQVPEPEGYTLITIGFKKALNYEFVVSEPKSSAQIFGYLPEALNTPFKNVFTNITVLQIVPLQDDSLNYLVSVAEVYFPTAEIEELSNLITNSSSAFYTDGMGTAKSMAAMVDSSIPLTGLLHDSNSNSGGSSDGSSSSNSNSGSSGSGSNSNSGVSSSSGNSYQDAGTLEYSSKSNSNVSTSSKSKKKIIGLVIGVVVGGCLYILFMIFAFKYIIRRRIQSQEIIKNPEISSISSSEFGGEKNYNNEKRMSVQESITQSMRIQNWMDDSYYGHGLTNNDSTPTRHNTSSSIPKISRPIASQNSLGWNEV

One test covers variants of B1. Conditions: with hkr1_yeast HKR1, P41809.
Chain of hkr1_yeast HKR1, P41809 (P41809 whole entry): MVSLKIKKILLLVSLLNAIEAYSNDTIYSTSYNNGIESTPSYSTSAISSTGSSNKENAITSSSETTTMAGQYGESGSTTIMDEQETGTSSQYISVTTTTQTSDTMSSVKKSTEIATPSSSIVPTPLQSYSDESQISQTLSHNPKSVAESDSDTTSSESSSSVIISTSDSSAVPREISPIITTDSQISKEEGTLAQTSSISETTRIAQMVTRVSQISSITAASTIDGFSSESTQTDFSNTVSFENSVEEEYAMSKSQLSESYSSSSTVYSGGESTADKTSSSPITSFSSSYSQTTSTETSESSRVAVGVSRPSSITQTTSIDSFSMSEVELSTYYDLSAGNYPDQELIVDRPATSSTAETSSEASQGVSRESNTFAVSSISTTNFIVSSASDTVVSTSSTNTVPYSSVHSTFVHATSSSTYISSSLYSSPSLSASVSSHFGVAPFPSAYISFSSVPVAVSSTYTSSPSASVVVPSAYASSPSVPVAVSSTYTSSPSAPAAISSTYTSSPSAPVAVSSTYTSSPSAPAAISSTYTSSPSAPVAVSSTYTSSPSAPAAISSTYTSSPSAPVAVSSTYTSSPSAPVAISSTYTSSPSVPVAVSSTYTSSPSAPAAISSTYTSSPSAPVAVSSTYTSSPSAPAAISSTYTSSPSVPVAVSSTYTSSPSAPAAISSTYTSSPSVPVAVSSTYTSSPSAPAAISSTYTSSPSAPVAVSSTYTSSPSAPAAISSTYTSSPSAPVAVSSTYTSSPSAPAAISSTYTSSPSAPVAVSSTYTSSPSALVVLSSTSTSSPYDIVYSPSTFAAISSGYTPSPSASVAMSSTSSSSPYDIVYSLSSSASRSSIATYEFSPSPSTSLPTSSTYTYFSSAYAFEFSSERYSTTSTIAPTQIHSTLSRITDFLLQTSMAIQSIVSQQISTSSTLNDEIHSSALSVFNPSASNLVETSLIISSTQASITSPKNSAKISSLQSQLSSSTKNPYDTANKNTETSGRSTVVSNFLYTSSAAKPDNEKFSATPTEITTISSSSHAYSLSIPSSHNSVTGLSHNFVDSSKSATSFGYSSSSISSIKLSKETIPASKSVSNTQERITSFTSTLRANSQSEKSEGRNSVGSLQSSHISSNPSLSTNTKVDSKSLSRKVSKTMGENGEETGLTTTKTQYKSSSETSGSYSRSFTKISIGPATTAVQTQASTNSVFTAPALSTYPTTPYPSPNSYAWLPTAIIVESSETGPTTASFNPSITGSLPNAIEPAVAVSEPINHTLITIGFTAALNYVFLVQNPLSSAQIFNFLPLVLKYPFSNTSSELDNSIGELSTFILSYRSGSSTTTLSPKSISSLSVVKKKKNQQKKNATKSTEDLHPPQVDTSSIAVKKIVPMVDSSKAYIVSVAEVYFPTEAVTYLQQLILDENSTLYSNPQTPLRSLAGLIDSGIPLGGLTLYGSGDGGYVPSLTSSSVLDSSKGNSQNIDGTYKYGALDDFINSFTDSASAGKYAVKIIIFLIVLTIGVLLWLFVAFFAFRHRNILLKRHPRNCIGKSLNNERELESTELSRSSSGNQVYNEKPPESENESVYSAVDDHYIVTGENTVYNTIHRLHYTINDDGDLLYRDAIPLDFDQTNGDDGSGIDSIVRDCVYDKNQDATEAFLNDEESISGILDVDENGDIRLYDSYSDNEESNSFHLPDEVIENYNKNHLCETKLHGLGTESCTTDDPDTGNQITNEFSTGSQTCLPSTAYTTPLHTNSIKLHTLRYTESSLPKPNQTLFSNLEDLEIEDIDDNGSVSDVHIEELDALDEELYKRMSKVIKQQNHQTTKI
As for Y106H, the “effect of a mutation on the interaction” value was “decreasing interaction”. Still for that read-out and setting: the entry for T108I is “decreasing interaction”.

The next test covers variants of B2. To be noted: with msb2_yeast MSB2, P32334.
As for T108I, the “effect of a mutation on the interaction” value is recorded as “decreasing interaction”. Still for that read-out and setting: the entry for Y106H is “decreasing interaction”.

These data come from IntAct's records for PubMed 17627274.
